In the RNAGym collection of RNA variant scans (doi:10.1073/pnas.2313332121):

B1: TPR t1 (parent)
chain: GACCAAUCUGCCCUCAGAGCUCGAGAACAUCUUCGGAUGCAGAGGAGGCAGGCUUCGGUGGCGCGAUAGCGCCAACGUCCUCAACCUCCAAUGCAUCCCACCACAUGAUGAUGCCUGAAGAGCCUUGGUUUUUUG

Variants of: B1
Experiment: polymerase ribozyme fitness, log enrichment relative to wild type (log ratio); higher = more active; in vitro selection for triplet polymerase activity
Procedure, shortened: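 For each subunit of a heterodimeric triplet polymerase ribozyme, a mutant library was built by PCR and transcribed, then taken through a single in vitro selection round in triplicate. Selection involved annealing to a biotinylated primer, the partner subunit and triplets, incubation frozen at −7 °C, gel excision of extended constructs, capture on streptavidin beads and RT-PCR. Genotypes were retained after Illumina sequencing of inputs and outputs only with ≥10 input reads and ≥1 read in each output. Fitness is defined as the logarithm of a genotype's enrichment relative to wild-type enrichment, using inverse-variance-weighted averages across replicates, with the logarithm taken to base 2.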

For A24G G128U, which “polymerase ribozyme fitness (log ratio)” value is on record?
The value was -4.32.

For U9C G39U G48A C53G A91G, which “polymerase ribozyme fitness (log ratio)” value is on record?
Its value is -2.06.

For C12U A46U G51U G69U A74U, which “polymerase ribozyme fitness (log ratio)” value is on record?
The value was -3.04.

Which “polymerase ribozyme fitness (log ratio)” value does the source give for A16U C49A C72A here?
Its value is -1.6.

For G10A C12G U21C U106G C114G U116A, which “polymerase ribozyme fitness (log ratio)” value is on record?
Its value is -6.06.

For G51U C101U, which “polymerase ribozyme fitness (log ratio)” value is on record?
Its value is -4.07.

For U7A G35A U78G, which “polymerase ribozyme fitness (log ratio)” value is on record?
The value was -4.41.

Which “polymerase ribozyme fitness (log ratio)” value does the source give for A5C A46U A83C C86G C114A G117A here?
The value was -6.85.

With U9C U112A C114G as the variant, how does the “polymerase ribozyme fitness (log ratio)” value read?
The value was 0.928.

With C12A G44A A46G G48U as the variant, how does the “polymerase ribozyme fitness (log ratio)” value read?
Its value is -3.1.

For C12U U33G G69U C99A C115A U125C, which “polymerase ribozyme fitness (log ratio)” value is on record?
Its value is -6.8.

With U7A A50U G57A A83U as the variant, how does the “polymerase ribozyme fitness (log ratio)” value read?
Its value is -1.44.

For C28U G71C C124U, which “polymerase ribozyme fitness (log ratio)” value is on record?
Its value is -2.51.

Which “polymerase ribozyme fitness (log ratio)” value does the source give for C64U C76G here?
The value was -3.51.

Which “polymerase ribozyme fitness (log ratio)” value does the source give for A6G C88U G113U here?
Its value is -2.37.

Which “polymerase ribozyme fitness (log ratio)” value does the source give for C56G here?
Its value is -0.465.

With C4U G44A C73U A75U C94A as the variant, how does the “polymerase ribozyme fitness (log ratio)” value read?
Its value is -2.78.

For G71A C89U, which “polymerase ribozyme fitness (log ratio)” value is on record?
The value was -0.978.

Which “polymerase ribozyme fitness (log ratio)” value does the source give for A18U C20G G61A here?
The value was -6.8.

With C8A C15G C64U C82G C89A U109A as the variant, how does the “polymerase ribozyme fitness (log ratio)” value read?
The value was -6.66.

With C8U G17C G36C as the variant, how does the “polymerase ribozyme fitness (log ratio)” value read?
Its value is -4.86.

For U21A G60A A74U A100U U125G U132A, which “polymerase ribozyme fitness (log ratio)” value is on record?
The value was -0.987.

With C101U U109C as the variant, how does the “polymerase ribozyme fitness (log ratio)” value read?
The value was -3.93.

For U67C G120U, which “polymerase ribozyme fitness (log ratio)” value is on record?
Its value is -4.12.

For U14A G17A C20G C115U, which “polymerase ribozyme fitness (log ratio)” value is on record?
Its value is -5.9.

With C62U A74U U78A as the variant, how does the “polymerase ribozyme fitness (log ratio)” value read?
Its value is -0.615.

For C11A C12A C28U C31G G52A G63C G113C U116A, which “polymerase ribozyme fitness (log ratio)” value is on record?
The value was -5.83.

For G23A C40A, which “polymerase ribozyme fitness (log ratio)” value is on record?
Its value is -4.86.

With A18C A95C G128U as the variant, how does the “polymerase ribozyme fitness (log ratio)” value read?
The value was -5.8.

Which “polymerase ribozyme fitness (log ratio)” value does the source give for U59C G113A here?
Its value is -1.03.

With G71A U116C G117U as the variant, how does the “polymerase ribozyme fitness (log ratio)” value read?
Its value is -2.83.

Which “polymerase ribozyme fitness (log ratio)” value does the source give for C11A C72G A111U here?
The value was -6.18.

Which “polymerase ribozyme fitness (log ratio)” value does the source give for G44A G45U G77A U129C here?
Its value is -3.02.

For A41U C56A U87C, which “polymerase ribozyme fitness (log ratio)” value is on record?
The value was -1.49.

With C49A A66G C73U as the variant, how does the “polymerase ribozyme fitness (log ratio)” value read?
The value was -1.61.

For U14G U87G G127C, which “polymerase ribozyme fitness (log ratio)” value is on record?
Its value is -4.35.

Which “polymerase ribozyme fitness (log ratio)” value does the source give for G45A U55C C70U G128A here?
Its value is -4.09.

With C13U G25C C62G C82A C86A C102U U109C as the variant, how does the “polymerase ribozyme fitness (log ratio)” value read?
The value was -7.42.

With A2C A41U U78G as the variant, how does the “polymerase ribozyme fitness (log ratio)” value read?
The value was -3.61.

Which “polymerase ribozyme fitness (log ratio)” value does the source give for G35A C88U A121U here?
Its value is -1.91.

For A16G G61C C72U U81A U106A U116C, which “polymerase ribozyme fitness (log ratio)” value is on record?
The value was 1.38.

For C15A G127A, which “polymerase ribozyme fitness (log ratio)” value is on record?
Its value is -3.63.

Which “polymerase ribozyme fitness (log ratio)” value does the source give for A50G A105C here?
The value was -2.43.

With U7G G71U C115A as the variant, how does the “polymerase ribozyme fitness (log ratio)” value read?
The value was 1.44.

With A41C U106G C114U U130A as the variant, how does the “polymerase ribozyme fitness (log ratio)” value read?
Its value is -4.41.

Which “polymerase ribozyme fitness (log ratio)” value does the source give for U21A G39C G77A here?
The value was -1.28.

Which “polymerase ribozyme fitness (log ratio)” value does the source give for A46U C56A G93A G120A C123U here?
The value was -1.16.

For G48U A91U C123U G127U, which “polymerase ribozyme fitness (log ratio)” value is on record?
The value was -2.98.

Which “polymerase ribozyme fitness (log ratio)” value does the source give for C115A here?
The value was -0.202.

For A29G A41C A119U U133G, which “polymerase ribozyme fitness (log ratio)” value is on record?
Its value is -2.94.

For C8G G47C C85G, which “polymerase ribozyme fitness (log ratio)” value is on record?
Its value is -1.92.

With A2G C34A U55A C70G U112C as the variant, how does the “polymerase ribozyme fitness (log ratio)” value read?
The value was -5.23.

Which “polymerase ribozyme fitness (log ratio)” value does the source give for G44U C56G G61U C89A C94G G122A here?
The value was -4.78.

With A5U C31U U112A as the variant, how does the “polymerase ribozyme fitness (log ratio)” value read?
Its value is -3.97.

For A43U U92G, which “polymerase ribozyme fitness (log ratio)” value is on record?
Its value is -1.81.

With C13U A27G G47A C64U as the variant, how does the “polymerase ribozyme fitness (log ratio)” value read?
The value was -3.03.

Which “polymerase ribozyme fitness (log ratio)” value does the source give for C79U G113A C123U U129C here?
Its value is -3.48.

With C8U A24G G36A G44U C72U as the variant, how does the “polymerase ribozyme fitness (log ratio)” value read?
The value was -2.98.

With C49U G120C C123G as the variant, how does the “polymerase ribozyme fitness (log ratio)” value read?
Its value is -0.212.

Which “polymerase ribozyme fitness (log ratio)” value does the source give for U14C U54G G93C C104U U116G here?
The value was -3.88.

With A26G U78C as the variant, how does the “polymerase ribozyme fitness (log ratio)” value read?
The value was -2.25.

For U9C G60A U130A, which “polymerase ribozyme fitness (log ratio)” value is on record?
Its value is 0.434.

Which “polymerase ribozyme fitness (log ratio)” value does the source give for A41G C70U U78C here?
Its value is -0.997.

For C49U U106A C114U, which “polymerase ribozyme fitness (log ratio)” value is on record?
Its value is -4.43.

Which “polymerase ribozyme fitness (log ratio)” value does the source give for A66G U106G here?
Its value is -3.66.

For C3A U7C G113C, which “polymerase ribozyme fitness (log ratio)” value is on record?
The value was -2.78.

With A2U C56A as the variant, how does the “polymerase ribozyme fitness (log ratio)” value read?
Its value is -2.33.

Which “polymerase ribozyme fitness (log ratio)” value does the source give for U7G G10U C79G here?
Its value is -1.66.

For C15U A16U G23A G63A G93C C114G, which “polymerase ribozyme fitness (log ratio)” value is on record?
Its value is -7.78.

With C8G C13U G45C A84C as the variant, how does the “polymerase ribozyme fitness (log ratio)” value read?
The value was 0.0875.

Which “polymerase ribozyme fitness (log ratio)” value does the source give for A2C C40U here?
The value was -2.06.

For C20A C70U G93A G113C U132C, which “polymerase ribozyme fitness (log ratio)” value is on record?
The value was -7.65.

For C73A U78C A90C A91U U109G, which “polymerase ribozyme fitness (log ratio)” value is on record?
Its value is -7.04.

For C4U A100U G117U, which “polymerase ribozyme fitness (log ratio)” value is on record?
Its value is -4.99.

Which “polymerase ribozyme fitness (log ratio)” value does the source give for A29U C62U A74C U81C C124A here?
Its value is -1.11.

For A43C C49A C94A C115A, which “polymerase ribozyme fitness (log ratio)” value is on record?
The value was -4.43.

For A6G C70A, which “polymerase ribozyme fitness (log ratio)” value is on record?
The value was -2.41.

With A29U U32C G61C C70G C98A C114U as the variant, how does the “polymerase ribozyme fitness (log ratio)” value read?
Its value is -5.96.

For A27C A43C C114U, which “polymerase ribozyme fitness (log ratio)” value is on record?
Its value is -4.33.

Which “polymerase ribozyme fitness (log ratio)” value does the source give for C20U G42A C124G U126C G135U here?
The value was -1.98.

For G42C A46U C82G, which “polymerase ribozyme fitness (log ratio)” value is on record?
The value was -3.68.

Which “polymerase ribozyme fitness (log ratio)” value does the source give for C31U A119G here?
The value was -3.71.

Which “polymerase ribozyme fitness (log ratio)” value does the source give for C79U C94A C99U A121G here?
The value was -2.9.

With A27U A83U C86U U129C as the variant, how does the “polymerase ribozyme fitness (log ratio)” value read?
The value was -3.64.
